# Tests used:
# [1] = target: Human surfactant protein-A (SP-A) (human) (UniProt Q8IWL2); assay: SEC; gel filtration HPLC, two Biosep-SEC-S 4000 columns in series; SP-A (1.62 mg/ml) and α1-AT (1 mg/ml), 1:50 molar ratio, incubated 24 hrs at 37°C in phosphate buffer; eluted with 100 mM Na2HPO4, 2 mM CaCl2, pH 6.8
# [2] = target: Human surfactant protein-A (SP-A) (human) (UniProt Q8IWL2)
substance,measurement,setting,value
Wild-type α1-antitrypsin (M α1-AT) (from UniProt P01009 25-418) (natural protein),stoichiometry N (molecules of α1-AT per molecule of SP-A),[1],18
same,"turnover number per inactivation of HNE, unmodified SP-A with α1-AT",[2],24
